Test results published in paper PMC10699647, “Structural basis of G protein–Coupled receptor CMKLR1 activation and signaling induced by a chemerin-derived agonist” (PLOS Biology, 2023).

Legend:
CMKLR1 = details: cited from earlier work
Source text: The apparent contradictory functional roles of CMKLR1 in inflammation may be associated with the spatiotemporal regulation of the inflammation processes in cells. It is possible that in the early stage of inflammation, the CMKLR1 signaling is mainly pro-inflammatory by promoting chemotaxis and activation of DCs and macrophages, whereas at the late stage of inflammation, CMKLR1 activation can induce pro-resolving pathways to dampen inflammation. Another possibility for the differing effects of CMKLR1 signaling on inflammation is that different chemerin isoforms may activate CMKLR1 to induce dis ... || The potential roles of CMKLR1 signaling in inflammation may provide promising new opportunities for developing anti-inflammatory drugs. […] Nevertheless, the only commercially a ...

[1] = system: primary human macrophages; test: Macrophage differentiation assay, surface markers by flow cytometry (MFI fold-change); details: 72 hours, 10 ng/mL (each), vs M0, n = 4 donors
Experimental: Monocytes were enriched from human PBMC by CD14 beads positive selection (Miltenyi Biotec) and cultured in IMDM supplanted with 10% human AB serum (Omega Scientific, Cat# HS-20) for 7 days for them to differentiate to macrophages.
Differentiated macrophages were then replated to low-bind plate at 0.15 million cells per 24-well plate, in 500 μl medium overnight before stimulated with various condition. Human macrophage medium was used as M0 reference culture condition, while 10 ng/ml IFNg plus 10 ng/ml LPS supplement were used as M1 reference, and 10 ng/ml IL-10 supplement used as M2 reference. […] Data were acquired on Cytek Aurora flowcytometry, analysis on Flowjo. MFI quantifications were normalized to M0 condition and statistically analyzed by 2-way ANOVA, with Dunnett’s multiple comparisons test; all groups were pair analyzed with M0 group as reference.

In the case of `C[N+](C)(C)CCC(=O)c1cccc2ccccc12.[I-]` [α-NETA], the “potency against CMKLR1” value (CMKLR1; antagonist, ref [30]) is given as “low micromolar potency”.

In the case of “chemerin15: synthetic peptide corresponding to the 141–155 amino acid segment of chemerin (AGEDPHSFYFPGQFA; UniProt Q99969 141-155, looked up, fragment)”, the “agonism and anti-inflammatory effects” value (CMKLR1; CMKLR1, ref [9]) is given as “stable agonists of CMKLR1 that induce anti-inflammatory effects”.

B1: IL-10: 10 ng/ml IL-10 supplement used as M2 reference (protein, UniProt P22301 19-178, looked up)
Interleukin-10: SPGQGTQSENSCTHFPGNLPNMLRDLRDAFSRVKTFFQMKDQLDNLLLKESLLEDFKGYLGCQALSEMIQFYLEEVMPQAENQDPDIKAHVNSLGENLKTLRLRLRRCHRFLPCENKSKAVEQVKNAFNKLQEKGIYKAMSEFDIFINYIEAYMTMKIRN
In the case of B1, the “CD86 expression in words” value [1] is reported as “down-regulation”, the “CD163 expression in words” value [1] is reported as “up-regulation” and the “CD206 expression in words” value [1] is reported as “up-regulation”.
